Key:
[1] = tested on: peritoneal macrophages from C3H/HeJ mice; experiment: Nitrogen monoxide release assay (macrophage activation); assay type: cell-based; details: with rIFN-γ, 45-48 hours; compared with the known BPPcysMPEG
Description: Experimental protocol: In brief, peritoneal macrophages from C3H/HeJ mice were used as the macrophage source. They were cultured in 96-well microtiter plates and stimulated simultaneously with rIFN-γ and a serial dilution of macrophage activator. Insofar as necessary, the macrophage activators were dissolved in 25 mM octylglucoside in the first dilution step and then diluted further with medium (i.e. R-Malp-2). After an incubating time of 45-48 hours, the nitrate was reduced with nitrate reductase and the starting substance nitrogen monoxide was determined, as the sum of nitrate and nitrite, using Griess' reagent. 1 unit (U)/ml is defined as the dilution at which half-maximal stimulation takes place.
FIG. 2: Nitrogen monoxide release assay. Peritoneal macrophages from C3H/HeJ mice were used as the macrophage source. They were cultured in 96-well microtiter plates and stimulated simultaneously with rIFN-γ and a serial dilution of macrophage activator. After an incubating time of 45-48 hours, the nitrate was reduced with nitrate reductase and the starting substance nitrogen monoxide was determined, as the sum of nitrate and nitrite, using Griess' reagent.

[2] = tested on: IFNgamma, IL-2, IL-4 and IL-17-secreting cells; experiment: ELISPOT of cytokine-secreting spleen cells in immunized mice; assay type: in vivo
Description: Experimental protocol: Spleens were removed and pooled for analysis of cellular immune responses. Cells were grown in RPMI 1640 supplemented with 10% fetal calf serum, 100 U/ml of penicillin, 50 μg/ml of streptomycin, 5×10^−5 M 2-mercaptoethanol and 1 mM L-glutamine (GIBCO BRL, Karlsruhe, Germany) and maintained at 37° C. in a humidified 5% CO2 atmosphere. Lymph node and spleen cell suspensions were adjusted to 5×10^6 cells/ml in complete medium, cells were seeded with 100 μl per well in a flat-bottomed 96-well microtiter plate (Nunc) and plates were incubated for 4 days in the presence of different concentrations of soluble Ova. Each concentration was tested in triplicates.
FIG. 7: Detection of IFNgamma, IL-2, IL-4 and IL-17-secreting cells in immunized mice. Spleen cells (1×10^6 and 5×10^5 cells/well) recovered from animals vaccinated by the (A) i.n. or (B) s.c. route were incubated in the presence of either the Ova protein (for IL2 and IL4) or a Ova peptide (TPHPARIGL) encompassing its immunodominant MHC class I-restricted epitope (for IFNgamma). Then, the numbers of IFNgamma, IL2, IL4 and IL-17-producing cells was determined by ELISPOT. Results are presented as spot forming units per 10^6 cells, which were subtracted from the values obtained from non-stimulated cells. The SEM of triplicates is indicated by vertical lines.

B1: Ova: model antigen ovalbumin (Sigma Chemie) (protein, UniProt P01012 2-386, looked up)
Ovalbumin: GSIGAASMEFCFDVFKELKVHHANENIFYCPIAIMSALAMVYLGAKDSTRTQINKVVRFDKLPGFGDSIEAQCGTSVNVHSSLRDILNQITKPNDVYSFSLASRLYAEERYPILPEYLQCVKELYRGGLEPINFQTAADQARELINSWVESQTNGIIRNVLQPSSVDSQTAMVLVNAIVFKGLWEKAFKDEDTQAMPFRVTEQESKPVQMMYQIGLFRVASMASEKMKILELPFASGTMSMLVLLPDEVSGLEQLESIINFEKLTEWTSSNVMEERKIKVYLPRMKMEEKYNLTSVLMAMGITDVFSSSANLSGISSAESLKISQAVHAAHAEINEAGREVVGSAEAGVDAASVSEEFRADHPFLFCIKHIATNAVLFFGRCVSP
potential for activating macrophages (NO secretion) [1]: no potency
IFNγ producing cells after i.n. administration [2]: narrowly detectable
